11 proteins from publication PMC12455010 can be followed below.

Data set [1] in a line: cell surface biotinylation, western blot. As to conditions: glycan lost. For orientation: Immunoblotting shows a protein as a band on a membrane.
Data set [2] is described as follows: automated whole-cell patch clamp, inactivation width at +80 mV.
Data set [3] is described as follows: whole-cell patch clamp in CHO. As to conditions: glycan lost; control: wild type. In general terms: In patch-clamp work, channel activity is measured electrically.
The mark [4] stands for this setting: glycan changed form, control: untreated.
The mark [5] stands for this setting: glycan changed form, control: low glucose.
[6] abbreviates: glycan lost, control: wild type.

B1: rat Kv3.4 (rKv3.4): tunicamycin (protein)
parent chain: MISSVCVSSYRGRKSGNKPPSKTCLKEEMAKGEASEKIIINVGGTRHETYRSTLRTLPGTRLAWLADPDGGGRPESDGGGAGSSGSSGGGGGCEFFFDRHPGVFAYVLNYYRTGKLHCPADVCGPLFEEELTFWGIDETDVEPCCWMTYRQHRDAEEALDIFESPDGGGGGAGPGDEAGDDERELALQRLGPHEGGSGPGAGSGGCRGWQPRMWALFEDPYSSRAARVVAFASLFFILVSITTFCLETHEAFNIDRNVTEIHRVGNITSVRFRREVETEPILTYIEGVCVMWFTLEFLVRIVCCPDTLDFVKNLLNIIDFVAILPFYLEVGLSGLSSKAARDVLGFLRVVRFVRILRIFKLTRHFVGLRVLGHTLRASTNEFLLLIIFLALGVLIFATMIYYAERIGARPSDPRGNDHTDFKNIPIGFWWAVVTMTTLGYGDMYPKTWSGMLVGALCALAGVLTIAMPVPVIVNNFGMYYSLAMAKQKLPKKRKKHVPRPPQLESPIYCKSEETSPRDSTYSDTSPPAREEGMVERKRADSKQNGDANAVLSDEEGAGLTQPLASAPTPEERRALRRSGTRDRNKKAAACFLLSAGDYACADGSVQKEGSVEPKACVPVSHTCAL
Turning to B1, in data set [1] (control: untreated), the localisation_or_trafficking result is on record as “no change”. Besides, in data set [2] (glycan lost, control: untreated), the “other: channel inactivation delay and its heterogeneity” value is listed as “decreases”.

B2: rat Kv3.4 (rKv3.4): cytochalasin B (protein)
parent chain: B1 parent chain
With B2, in data set [2] (setting [4]), the “other: channel inactivation delay and its heterogeneity” value is given as “decreases”.

B3: rat Kv3.4 (rKv3.4): swainsonine (Sw) (protein)
parent chain: B1 parent chain
Regarding B3, the “other: channel inactivation delay and its heterogeneity” value in data set [2] (setting [4]) is listed as “decreases”.

B4: rat Kv3.4 (rKv3.4): low-glucose medium (protein)
parent chain: B1 parent chain
As for B4, the “other: channel inactivation delay and its heterogeneity” value in data set [2] (setting [4]) is given as “decreases”.

B5: rat Kv3.4 (rKv3.4): N257/266Q (protein)
parent chain: B1 parent chain
Take B5: in data set [1] (control: wild type), the localisation_or_trafficking entry is reported as “no change”.

B6: rat Kv3.4 (rKv3.4): glucose recovery (protein)
parent chain: B1 parent chain
On to B6, for which the “other: channel inactivation delay and its heterogeneity” value in data set [2] (setting [5]) is listed as “increases”.

B7: rat Kv3.4 (rKv3.4): N266Q (protein)
parent chain: B1 parent chain
As to B7, the “other: channel current” value in data set [3] is listed as “decreases”. The localisation_or_trafficking entry in data set [1] (control: wild type) is reported as “no change”. The “other: channel inactivation delay and its heterogeneity” value in data set [2] (setting [6]) is reported as “decreases”.

B8: rat Kv3.4 (rKv3.4): mannose recovery (protein)
parent chain: B1 parent chain
For the protein B8, the “other: channel inactivation delay and its heterogeneity” value in data set [2] (setting [5]) is on record as “increases”.

B9: rat Kv3.4 (rKv3.4): siGlut1 (protein)
parent chain: B1 parent chain
As to B9, the “other: channel inactivation delay and its heterogeneity” value in data set [2] (glycan changed form, control: siNeg) is recorded as “decreases”.

B10: rat Kv3.4 (rKv3.4): kifunensine (Kf) (protein)
parent chain: B1 parent chain
On to B10, for which the “other: channel inactivation delay and its heterogeneity” value in data set [2] (setting [4]) is “decreases”.

B11: rat Kv3.4 (rKv3.4): N257Q (protein)
parent chain: B1 parent chain
As for B11, the “other: channel current” value in data set [3] is given as “decreases”. In addition, the localisation_or_trafficking result in data set [1] (control: wild type) was “no change”. Moreover, the “other: channel inactivation delay and its heterogeneity” value in data set [2] (setting [6]) is on record as “decreases”.
